Reference: patent US20170189519A1

Assays:
Conditions in all cases: remark: other sources report otherwise
[1] = target: s127H1-t2-cl18long; experiment: SEC-MALS of trimer with Fab fragments; value in brackets is the theoretical one
[2] = target: s127H1-t2-cl18long; experiment: Kd app from steady state Octet (biolayer interferometry), antibody immobilized
[3] = target: UFV150124 (influenza A virus H1 A/Brisbane/59/2007)
[4] = target: UFV150135 (influenza A virus H1 A/California/07/2009)
[5] = target: UFV150134 (influenza A virus H1 A/California/07/2009)
[6] = target: UFV150125 (influenza A virus H1 A/Brisbane/59/2007)

B1: Fab fragment of CR6261 (Fab, V domains shown)
VH: EVQLVESGAEVKKPGSSVKVSCKASGGPFRSYAISWVRQAPGQGPEWMGGIIPIFGTTKYAPKFQGRVTITADDFAGTVYMELSSLRSEDTAMYYCAKHMGYQVRETMDVWGKGTTVTVSS
VL: QSVLTQPPSVSAAPGQKVTISCSGSSSNIGNDYVSWYQQLPGTAPKLLIYDNNKRPSGIPDRFSGSKSGTSATLGITGLQTGDEANYYCATWDRRPTAYVVFGGGTKLTVLG
Mw of trimer protein complex with CRF6261 [1]: 216 kDa

B2: CR6261 (antibody, V domains shown)
VH: B1 VH
VL: B1 VL
Kd [2]: 0.5 nM
CR6261 binding AlphaLISA (counts) [3]: 572000 counts
CR6261 binding AlphaLISA (counts) [4]: 625000 counts
CR6261 binding AlphaLISA (counts) [5]: 587000 counts
CR6261 binding AlphaLISA (counts) [6]: 475000 counts
